This is an account of results in paper PMC3919030.

Test [1] deals with Acidianus hospitalis Vps4 (AhosVps4, wild type, full length) (Acidianus hospitalis). Put plainly: SEC.
The target of test [2] is Vps4p (Saccharomyces cerevisiae) (UniProt P52917). As to conditions: cited from earlier work.
Sequence of Vps4p (Saccharomyces cerevisiae) (P52917 whole entry): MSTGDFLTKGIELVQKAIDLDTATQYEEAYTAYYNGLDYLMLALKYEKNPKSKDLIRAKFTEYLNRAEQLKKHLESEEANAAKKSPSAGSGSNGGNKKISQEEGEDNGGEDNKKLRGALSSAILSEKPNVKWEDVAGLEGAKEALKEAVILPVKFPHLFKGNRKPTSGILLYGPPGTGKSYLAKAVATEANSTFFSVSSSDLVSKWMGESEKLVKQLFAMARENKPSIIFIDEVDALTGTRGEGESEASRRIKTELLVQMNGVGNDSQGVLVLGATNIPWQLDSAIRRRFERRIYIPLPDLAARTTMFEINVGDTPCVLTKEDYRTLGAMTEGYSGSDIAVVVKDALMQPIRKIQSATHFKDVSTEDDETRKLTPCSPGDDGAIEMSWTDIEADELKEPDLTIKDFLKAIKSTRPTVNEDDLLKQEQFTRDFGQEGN

Sequence of Vta1p (Q06263 whole entry): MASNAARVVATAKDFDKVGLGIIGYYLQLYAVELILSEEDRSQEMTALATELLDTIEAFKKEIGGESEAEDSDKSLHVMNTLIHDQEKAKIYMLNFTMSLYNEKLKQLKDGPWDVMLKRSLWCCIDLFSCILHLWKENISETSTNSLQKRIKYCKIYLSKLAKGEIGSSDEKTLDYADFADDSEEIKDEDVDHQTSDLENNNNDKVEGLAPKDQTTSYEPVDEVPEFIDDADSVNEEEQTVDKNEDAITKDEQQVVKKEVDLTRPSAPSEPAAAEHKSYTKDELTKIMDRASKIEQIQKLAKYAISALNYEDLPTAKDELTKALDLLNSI

As a reminder, the stoichiometry N is the number of molecules, sites or subunits per partner or assembly. As to “Acidianus hospitalis Vps4 (AhosVps4, wild type, full length) (enzyme)”, in test [1], the stoichiometry N came to 6. The Kd is a measure of binding affinity in units of concentration. Consider Vta1p (from UniProt Q06263), for which the Kd in test [2] was 17 µM.
